Reference: patent US20250115926A1, “DEREGULATED DHS AND TYRA ENZYMES OF GRASSES ENABLE EFFICIENT PRODUCTION OF BOTH TYROSINE AND PHENYLALANINE” (priority 2023, published 2025)

What was measured:
[1] = system: O=C[C@H](O)[C@H](O)COP(=O)(O)O; experiment: DHS activity: kinetics and effector inhibition; type: biochemical, Brachypodium distachyon; conditions: other: 1.5 mM PEP, 37° C., pH 7.5
Procedure: (§1) To examine their functional properties, the recombinant DHS enzymes of Brachypodium were produced and characterized in vitro.
(§2) All DHS effectors tested were included in the initial reaction mixtures at a concentration of 0.5 mM, except for IC50 determination for arogenate and tryptophan, in which variable concentrations were used. To ensure at least 10 minutes of linear reaction, enzyme mass per reaction was carefully adjusted to between 100 to 300 ng (depending on the specific activity of each specific isoform) using DHS storage buffer supplemented with BSA. […] The enzymatic reaction was started with the addition of E4P (variable concentration, see below).
(§3) The DHS assay for UHPLC-MS quantification was set up using the same settings as described in the previous paragraph for the UV-based DHS assay, which guaranteed at least 10 minutes of reaction linearity. After a 10-minute incubation, 20 μL of the reactions (out of a total volume of 50 μL) were mixed into 80 μL of methanol, vortexed and transferred to vials for injection. Analysis of DAHP by UHPLC-MS was conducted using the same chromatographic settings as described for the UHPLC-MS analysis of soluble metabolites and compared with an authentic DAHP standard (Sta. Cruz biotechnology, cat. no. sc-216432).
C=C(OP(=O)(O)O)C(=O)O = experiment: purified protein, by the assay type; conditions: other: 2 mM E4P, 37° C., pH 7.5
[2] = system: O=C[C@H](O)[C@H](O)COP(=O)(O)O; experiment: purified protein, by the assay type; conditions: other: 1.5 mM PEP, 37° C., pH 7.5
Procedure: as §1, §2, §3

Chain of Brachypodium distachyon BdDHS1a, SEQ ID NO: 1, recombinant (Brachypodium distachyon) (chain, as listed by the source): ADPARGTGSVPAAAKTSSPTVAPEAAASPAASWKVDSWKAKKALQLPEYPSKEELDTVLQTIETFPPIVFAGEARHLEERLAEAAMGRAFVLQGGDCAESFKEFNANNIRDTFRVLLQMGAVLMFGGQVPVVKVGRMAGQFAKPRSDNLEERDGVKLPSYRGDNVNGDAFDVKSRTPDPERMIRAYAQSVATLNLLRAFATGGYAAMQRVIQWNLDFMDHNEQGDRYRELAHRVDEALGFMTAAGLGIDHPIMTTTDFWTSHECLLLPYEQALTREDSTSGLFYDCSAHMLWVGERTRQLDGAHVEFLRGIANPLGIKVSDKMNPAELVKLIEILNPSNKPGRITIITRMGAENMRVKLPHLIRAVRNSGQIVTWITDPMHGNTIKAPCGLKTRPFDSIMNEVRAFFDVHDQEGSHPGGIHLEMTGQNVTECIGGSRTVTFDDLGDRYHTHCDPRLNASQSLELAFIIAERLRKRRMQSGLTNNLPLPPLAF
Chain of Brachypodium distachyon BdDHS1b, SEQ ID NO: 3, recombinant (Brachypodium distachyon) (chain, as listed by the source): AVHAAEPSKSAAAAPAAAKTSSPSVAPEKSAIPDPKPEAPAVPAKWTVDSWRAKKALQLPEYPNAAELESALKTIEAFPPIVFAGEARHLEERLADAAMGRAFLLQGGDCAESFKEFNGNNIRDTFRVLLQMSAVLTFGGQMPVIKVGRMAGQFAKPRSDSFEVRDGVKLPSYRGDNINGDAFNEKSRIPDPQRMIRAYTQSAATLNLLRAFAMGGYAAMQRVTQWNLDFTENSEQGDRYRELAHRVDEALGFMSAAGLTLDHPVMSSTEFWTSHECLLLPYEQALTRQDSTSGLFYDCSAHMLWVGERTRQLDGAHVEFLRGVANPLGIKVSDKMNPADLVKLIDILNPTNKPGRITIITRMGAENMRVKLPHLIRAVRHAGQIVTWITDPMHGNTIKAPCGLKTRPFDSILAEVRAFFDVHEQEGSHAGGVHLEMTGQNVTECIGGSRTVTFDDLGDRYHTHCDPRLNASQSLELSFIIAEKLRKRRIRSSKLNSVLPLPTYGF
Chain of Brachypodium distachyon BdDHS2, SEQ ID NO: 5, recombinant (Brachypodium distachyon) (chain, as listed by the source): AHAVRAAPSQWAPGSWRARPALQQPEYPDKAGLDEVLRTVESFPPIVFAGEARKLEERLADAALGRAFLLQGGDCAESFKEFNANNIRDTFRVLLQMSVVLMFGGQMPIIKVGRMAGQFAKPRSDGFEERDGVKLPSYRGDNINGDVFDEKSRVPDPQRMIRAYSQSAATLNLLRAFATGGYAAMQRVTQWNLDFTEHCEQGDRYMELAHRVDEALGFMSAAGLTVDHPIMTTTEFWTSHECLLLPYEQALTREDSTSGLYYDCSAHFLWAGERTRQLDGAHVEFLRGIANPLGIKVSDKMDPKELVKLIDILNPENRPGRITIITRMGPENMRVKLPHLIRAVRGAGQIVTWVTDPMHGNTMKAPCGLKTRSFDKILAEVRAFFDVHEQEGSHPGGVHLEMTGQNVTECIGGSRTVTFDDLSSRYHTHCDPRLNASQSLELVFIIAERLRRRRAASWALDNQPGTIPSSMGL

| Substance | K0.5 [1] | kcat [1] | Km (C=C(OP(=O)(O)O)C(=O)O) | kcat (C=C(OP(=O)(O)O)C(=O)O) | kcat/Km (C=C(OP(=O)(O)O)C(=O)O) | K0.5 [2] | kcat [2] |
| --- | --- | --- | --- | --- | --- | --- | --- |
| Brachypodium distachyon BdDHS2, SEQ ID NO: 5, recombinant (Brachypodium distachyon) | 0.51 mM | 5.6 s⁻¹ | 190 µM | 5.6 s⁻¹ | 29000 M⁻¹ s⁻¹ | – | – |
| Brachypodium distachyon BdDHS1a, SEQ ID NO: 1, recombinant (Brachypodium distachyon) | – | – | 130 µM | 17 s⁻¹ | 126000 M⁻¹ s⁻¹ | 0.55 mM | 17 s⁻¹ |
| Brachypodium distachyon BdDHS1b, SEQ ID NO: 3, recombinant (Brachypodium distachyon) | – | – | 200 µM | 11.3 s⁻¹ | 57200 M⁻¹ s⁻¹ | – | – |
